Test results as given in patent US20250236878A1 (priority 2019, published 2025).

Tests used:
[1] = system: Citrus trees infected with Candidatus Liberibacter asiaticus; assay type: in vivo, Citrus x paradisi; conditions: […]; trunk injection
[2] = system: Citrus trees infected with CLas; test: Recovery composition trunk injection: 'Valencia' orange fruit yield (Examples 3, 19); assay type: in vivo, Citrus sinesis; conditions: 'Valencia' orange; trunk injection
[3] = system: Citrus trees infected with CLas; design: species or system Citrus sinesis; conditions: in vivo
[4] = system: Citrus trees infected with CLas; assay type: in vivo, Citrus x paradisi; Citrus sinesis; conditions: average of 'Ruby Red' and 'Valencia'
Text: Treatments as previously described in Example 3; β-1,3-Endoglucanase from barley SEQ ID NO: 731 (Treatment 1) and Bt.4Q7Flg22 from Bacillus thurigiensis SEQ ID NO: 226 (Treatment 5) increased fruit yield (kg/tree) as described in Table 56. Fruit quality, and juice quality of ‘Valencia’ oranges are described in Table 57.
For direct comparison of the treatment results between grapefruit (‘Ruby Red’) and orange (‘Valencia’) are referenced in Table 56 above.

B1: B-1,3-Endoglucanase from Barley (SEQ ID NO: 731) (protein)
chain: GVCYGVIGNNLPSRSDVVQLYRSKGINGMRIYFADGQALSALRNSGIGLILDIGNDQLANIAASTSNAASWVQNNVRPYYPAVNIKYIAAGNEVQGGATQSILPAMRNLNAALSAAGLGAIKVSTSIRFDEVANSFPPSAGVFKNAYMTDVARLLASTGAPLLANVYPYFAYRDNPGSISLNYATFQPGTTVRDQNNGLTYTSLFDAMVDAVYAALEKAGAPAVKVVVSESGWPSAGGFAASAGNARTYNQGLINHVGGGTPKKREALETYIFAMFNENQKTGDATERSFGLFNPDKSPAYNIQF
modifications: Hordeum vulgare
[1]
  Average Yield (Relative to Untreated): (112%)
  Average Yield (kg per tree): 38.7 kg per tree
[2]
  Average Yield (Relative to Untreated): (136%)
  Average Yield (kg per tree): 54.8 kg per tree
[3]
  Average Fruit Diameter (Relative to Untreated): (104%)
  Average Fruit Diameter (mm): 62.76 mm
  Brix:CA Ratio: 12.01
  Brix:CA Ratio (Relative to Untreated): (+0.76)
[4]
  Average Yield (Relative to Untreated), Average of 2 sites: (124%)
